Protein production data for 20 sequences are collected here from a protein production outcome set (Wang et al. 2014).

This data set in a line: label from the status in PepcDB records.
For “MSLHDFTLADVYRRNAALFPDRTAFMVDGVRLTHRDYLARAERLASGLLRDGVHTGDRVAILSQNCSEMIELIGAVALIGAILLPVNYRLNADEIAFVLGDGAPSVVVAGTDYRDIVAGVLPSLGGVKKAYAIGDGSGPFAPFKDLASDTPFSAPEFGAADGFVIIHTAAVGGRPRGALISQGNLLIAQSSLVDAWRLTEADVNLGMLPLFHVTGLGLMLTLQQAGGASVIAAKFDPAQAARDIEAHKVTVMAEFAPMLGNILDQAAPAQLASLRAVTGLDTPETIERFEATCPNATFWATFGQSETSGLSTFAPYRDRPKSAGRPLFWRTVAVVDAEDRPLPPGEVGEIVLRGPTVFKGYWNNAAATQHAFRNGWHHTGDMGRFDADGYLFYAGRAPEKELIKTGGENVYPAEVEGALKQHPAIADAVVIGVPDPQWSEAIKAVCVCKPGESIAADALAEFVASLIARYKKPKHVVFVEALPKDAKGAIDRAAVKTAHGQEGHHHHHH”, the protein production result is reported as “not failed”. Under “MESKTNYTIVGLIVLILTAGLLSAGLWLSVGFNQKEYTSYTVYLKESVSGLSVESPVKFNGVQVGYVKEIKLNKNDPRQVELLLNIEKSTPITTSTSATLITQGITGVTYVGLSAGSSELTPLRKMPGEPYPVIPSKPSLLNQLDAVLKEVAENVGAVSEKAQLIFNEENADNVRKSLANLERITEIIADKGQTIDSSLNNLDVFVANMANASKQFPQLIKDLKTGISKFKSLADNMSAAGKDVSKTMIAGKNTIDQISQQAIPPAVILLRRLNAISANLEKVSNEMRQNPSVIIRGTKAPKLGPGELEHHHHHH” stands “failed”. As to “MASAHTTQTPFNRLLLTGAAGGLGKVLRETLRPYSHILRLSDIAEMAPAVGDHEEVQVCDLADKDAVHRLVEGVDAILHFGGVSVERPFEEILGANICGVFHIYEAARRHGVKRVIFASSNHVIGFYKQNETIDAHSPRRPDSYYGLSKSYGEDMASFYFDRYGIETVSIRIGSSFPEPQNRRMMSTWLSFDDLTRLLERALYTPDVGHTVVYGVSDNKTVWWDNRFASKLDYAPKDSSEVFRAKVDAQPMPADDDPAMVYQGGAFVASGPFGDK”, the protein production entry is “failed”.

As to “MANKNMRNTTTKVEALIESCRSEGKWHRVIELTDELKTGSPHNECLANFLVGEARLESYLEENALASDSNFGRAKSGLAEARRFLHLALGESGQKAGIALDAYLLLAKLCFACGEYEQSLDNFVKAELNTLAEKELTLRSLKILAESYAIKGLCLEQQTTKPSSKFKKAEKDTEMISCFERASDLGLLYLQEYDLVSGSSGSSNNSTAGSTLNVNASTVQPSSSSFAISSTIPASGPSGLEMNRRMGAILETALQRAPIVLIKTEKLQEAVERYRIMLNAIETRATQSLRLTLARQLAEVLLRGVSGTIYSPPFTGKSGGGTLRGGSSKKLWKPRKYAARQQFNPRNQQEEVILLLLIAEALAVRDTVLSQSPEFRQARQHAMGNVTAVYDLLTLATVRWGLVQLLNESFEKALKFSFGEQHVWRQYGLSLMAAEKHSHALRVLQESMKLTPSDPLPCLLASRLCYESLETVKQGLDYAQQALKREVKGLRPSRSQLFVGIGHQQLAIQSNLKSERDACHKLALDALERAVQFDGNDHLAEYYLSLQYALLGQLAEALVHIRFALALRMEHAPCLHLFALLLTSSRRPREALGVVEDALHEFPDNLQLLHVKAHLQLHLEDAETALGTVQHMLAVWRDVYEAQLAGEEEKHSDTKSGVHLAHSSQMSDKDSNSVYAASLAAVSRVEQALSEAASSLSSFTQRPGPRRPWMLQIEIWLLLADVYLRIDQPNEALNCIHEASQIYPLSHQIMFMRGQVHVYLEQWFDAKQCFLNAVAANPNHTEALRALGEAHLVLGEPRLAEKMLKDAAKLDPSCPKIWFALGKVMEILGDFHASADCFATSLQLEPSCPVLPFTSIPLVFE”, the protein production entry is recorded as “failed”. Under “MGSQGGIVSIDAKIDASVMIGKDAVVFPDANIAERACIAEKVCIGNAVRIGKHAMIDHGASIGDRSNIGERSRIYQDSFIGENAVIAARACIGEKVYIGNFVSLAKDSIIDDGVNIGERSSIGERTRIRQGSFIRKGCVIRQRSVIAKRAYIDEGVYIGNVVRILEHHHHHH” stands “failed”; under “MSLSIVSYYGSQQSKCGYCAGANCSLSHGMHAYQLDCRDYQDLIDRGWRRCGYYCYKLRNQETCCPCYTIKCNGLEFKLSKSNKRILRRINRFLRDGKRESKPEAGDGDGEADADYAIVAPEVTASEPQPQLPDKSPPVINVEQVASLATAQRKPTKQATAAAVEAPTLGSNKSSLLSSSAAAPISNKPCKKAKQMRLDRRLAKLGDSASYSTKSLTQEKTLRDFLNTDSETNKHRLKLRLIHVYDDEFRRTLPQSFALYKKYQISIHNDPPKDQDAYKEHLQATPLQNEKPWDGPEMGYGSFHQQYWLDDKLIAVGVIDILPGCVSSVYFFYDPDYSFLSLGTYGSLREIELVQSLAEKVPSLKYYYMGFYIHSCPKMRYKGKLSPSYLLCPETYEWLPLTDVIRAKLDEHKYQRLNEDPAARDVNEFLMEHLDEVKLLLGGRTRTDYKHFRQLRGTVSDDDIIIEYSKLVGKECARRMLYVK”, “failed”. Under “MTKQKSKPVEYHPFPQLVLTLDVRRSFTPTFLRQILQTRSFACVILYDSQGVQDDAVFLQKQAQIYAEDIQSNGAAFLISGERRVSERIKADGLHIEGDLKALEYCDYQKKEQKIIGFGNIRNRHCAMVAGEAGVDYLLFGKLGADKKPHAHPRNLQLARWWAEIMETPAIVQAGSDFATFDEVIKTACEFIAIEEVIFAHDNPLMLLKMMQEKCKNSPL” stands “failed”. As for “MIYWGMGMLVIAWLADGGISRLSDLIKEPLALGVLLFCGVWVLGLLWSDSAVIFQGKWRKYFILLTFIPLFSLLSRERLPWVTGALLCSYLGMVILGSYQWAMQEMQGISLLGMSYLHYSAALGIGVILAVFLGWETLSREKRWLSVLSWLIAILLLFLQFNQSARGILLATLMALLLMIVLRYRAEWRMLTGGLTAIMAMVILFATSSDIFHDRLQQAGTDLRSFQQGDYQTSVGYRLAMWDVGLHGIAEHPLLGHGSGMAKKYFDDSIITYKQGIYRNLPEFQETAHFHNELIEIGMHLGLLGILAFVFLLWCWFQIFRQNRMALLGSAIVCFICISGLTDTFLLYSGTPPFLLTVTAIAVCWRKYREDPDRIGQKYTSGERNGNQNPQMFLMSA”, the protein production result is “failed”. Consider “MSAERSRWLQCLGLPATADAIAIKTAYRQLARQWHPDCNPDPQATARFQEIQIAYERLLVLQESATAQPVPQAPPADAALIALKRQFQPQLQDLLADGRWAKAIALTEALQQRLPDDWEVRQWLAICYLRQGQALLVQQQRQQAIVYFEKARRTDPHNPRLQQEIQASHRLASARRA”, for which the protein production entry is reported as “failed”.

Consider “MPGTVGVLSGARSLLLSMVASVTAAGGNAAIVGQPDIGLLAAVEMGADLSRLAMIPDPGTDPVEVAAVLIDGMDLVVLGLGGRRVTRARARAVVARARQKGCTLLVTDGDWQGVSTRLAARVCGYEITPALRGVPTPGLGRISGVRLQINGRGRLEHHHHHH”, for which the protein production result is listed as “failed”.

Take “MEKKPWEEDISIEEFKKSLNKDKITNLIIKRRWNKGKSTYHLSFNGDFEVVTKKPSTKYVTHKQLDQKLKEFKQDLMVELHDTFATKADLRDSEARINQKLEALVQVVLLHGEQINKLTQIVEKQGEQIRELQVEQKAQRQEFNARMDRLENLLVESIESTNKRFDSIEGRLDSMDSRLDSMENRLDSIEGRLDSVEGRLDSVEGRLDSMENRLDSMETRLDKIDPPK”: the protein production entry is on record as “failed”.

Take “MNTVFFYLQVSIKNLHDSIKNLRVSIKNLYVSIKGAGITAFLQTVKYERFEEKILMDFISNLFGRDKNQSFLEASKQGQTENVEKLLRSNKVDVNYQDAYGKTALISAADKGYRDVIGLLIESGPNLDLQDENGNTALISAAKIERGDIIDLLVKNGADLNFQDENGETALKFAVKVGYKNIADQLIDAGTDLNIQDENGETALICAADRAHRDIAELLIKAGADLNIQDNSGKTALVAATKIGHKGIVELLVNAGADLNLQDKNGNTALIYAADRGYRDIVNLLIEGGASLNIPDEAGLTALMFSAQTGRKDIVELLIKAGADINIEDKNNKTAADLAAEVGFEEIVDLLTSVRTYSSS”: the protein production result is on record as “failed”. Under “MKVLTVVIPCYNSAEYMDRAIESLLIGDEELEILIVNDGSMDNTSIIADEYEKKYPNTIRVIHKENGGHGDAINTGLKHSKGVYFKVLDSDDWFDKASLKKVLEVLKNMIKDSKSLDMLISNYVYENFSINKSRSINYKGAMPKEKIFTWDSLGHLKSSQNILMHSVIYRTELLRECNLDLPKHTFYVDNIFVYKPLPYVKTMYYLDVDLYRYFIGREDQSVNEKVMIKRIDQQIKVTKILIDCYNPMLLNCKKLRKYMVKYLVMMMTVSTVLLIKDNTEQSLNKKRELWSYLHSKNRKLYFEVNKSFLGLLIQIKGFVGRKIILLGYSLSRKVFGFNLEHHHHHH” stands “failed”.

Consider “MDTVILITVIIVIVGLAFDFINGFHDIANAVATSISTRALKPRVAIGIAAVMNFLGAISFTGVAESLTKSIVDPFSLNNGEFVVLCGLIAAVIWNLMTWLVGMPSSSSHALIGAIAGASIASASSFSVLNWSGFTTIIIALIISPIIGFTVGYLIYSLFKHLFHDKKLGKMNRRFRFIQIGTAAAQAYSHGTNDAQKTMGIITLALVASGLLKESAGIPFWVQVSCAASMAIGSSVGGYRIIKTVGTKIMKITPVTGVASDLSSLSVIMTATLIHLPVSTTQVIDSSIMGVGTANHKKEVNWRTGKNMVVTWFITLPLAGLLAAVVYWISAAIFL”, for which the protein production entry was “failed”. Next, “MSLDRLAPAIFVFLWSTGWVTAKYAVYYTGPLTFLCLRYLLAGLLLWAICRFSGISWPKQRADVLRAILSGVFLHGIYLGMIWWAIGQGVPAAIGGIIAGLQPLMTAVAARFMIGERISPLQRAGLLLGFAGIAIAVLPKVMATGALGMSVPLYAVAVNVLGMVSVTYGTLYQKKYVHGGNIMAVATLQYVGALLVTVPFALLLEDGHVDWSLGLAATLGWSVGAISIGAVALLLYLIRRGQVSRAASLIYLVPPLAAVEAAVLFGETLTPAMIAGTVLAVTGVYLANRKPAASVAVR”: “failed”; “ERYMQDFDLIFKELERWGPGSESDTLKALQKVPNKSMTLLEIGCGQGIATELFARHTDAMITAVDNEEFALKHLMEKMQQNGLEDKITTVCADMAKMPFETKSFDLIWSEGSAYIMGVQNALKAWKPLLSEDGVLVVSDLVWSTDKPSEGALSFWKKEYPDMVSVSERIKHAQQAGYEVIEHFSLSDAAWEAYYHPLIERLDTLKDKLIDSPVLIDFENEITAFKQRANEFDYEIFILRSR”: “failed”; “MAKTDRSQPSVLARIAAFRTGLSAEASAADYLERQGYRILARRFKTRCGEIDLVAQRDALVAFVEVKARGNVDDAAYAVTPRQQSRIVAAAEAWLSRHPEHAMSELRFDAILIAPNTAPRHLPGAFDATP”: “not failed”. In the case of “IVAQGEDFVVSGALNLSLIRERTGFQAKATEDYQTLAGLVMSLLDRLPSTGDSLSWQGWNLQVVGVEERRVTRVLLQKQPAASAGK”, the protein production entry was “failed”. For “MLTFIVVNYNGEKYLKECLNSIINQTYRKLRVLVIDNGSTDGSRDILRNFEDYYSRFEVIRNEENLGFAKAANQGIEMANTKFVALVNNDAFLERNWAEEMLKAADDLRAGIFASKILFEDGRINSAGHAIHRGLAVMERGFLEKDEGQFDEPCYVAGACAAAAMYRRSLFEDVGLFDEDYFMYNEDVDLSLRALIRGWKILYVPTAIAYHLHSASTGFLSDFSVYYNSRNWVWSVVKNVPRDLLLREFPYFILRNFSSMLFFCLRGNFAILKSKIDAIRELRKFLEKRREVQQKVRFKAVEDYIEGLGFGKALKVARLAGVLR”, the protein production entry was “failed”. For “MEIQIVTGFLGAGKTTFLNRYLPLLSGKTVVIENEFGDIGIDGDRIQEDIPVREIFAGCICCSLAMDFRKGIKEIAENFHPDRILIEPSGVGRLTDIVKACQMAREREKVSLQITKLIAIVDMASFEEYIEGFGAFYQDQIERAGLLLLSHVEAENKAQKEIIIGRLKELNPDAILYDGDWRQLENEELLKLLEEAPDYDEDARRDAAFAALPADKVFSSVSFMDLPQMRIEDLEAIMKALEKEEYGYILRAKGWIETMEKGLVHFDFTPTVSKYREEKNPAGTGGEAVVIGCGLNQAALEMLFRRKNILEHHHHHH”, the protein production entry was “not failed”.
